Assay results: article PMC10454306, “Genome-Wide Identification of GmSPS Gene Family in Soybean and Expression Analysis in Response to Cold Stress”

Target: T1, GmICE1 conserved domain (GmICE1-His) (Glycine max, UniProt B8XJY5 275-465)
T1 sequence: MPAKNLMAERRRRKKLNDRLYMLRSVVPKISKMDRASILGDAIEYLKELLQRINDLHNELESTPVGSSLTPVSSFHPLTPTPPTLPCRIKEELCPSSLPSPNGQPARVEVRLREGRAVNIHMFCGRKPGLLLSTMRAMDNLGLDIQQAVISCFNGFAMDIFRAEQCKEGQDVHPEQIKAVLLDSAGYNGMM
Test: EMSA; weakened dose-dependently by unlabeled same-sequence competitor; EMSA kit (Thermo Fisher Scientific); buffer, salt, pH and temperature not stated
Conditions: protein: recombinant; tags: His (PET-32a vector); chain copies: 2; label: biotin (forward strand); blunt

B1: GmSPS8 promoter 50 bp probe (-66 to -115) (dsDNA)
DNA 1: AGTCTACACGTGTGTATCTCCATGGCCCACCATTCCTTGCCACGTGTCAA
DNA 2: TTGACACGTGGCAAGGAATGGTGGGCCATGGAGATACACACGTGTAGACT
**Q.** Does B1 bind?
**A.** binds

B2: GmSPS18 promoter 50 bp probe (-68 to -117) (dsDNA)
DNA 1: GTCTACACGTGTGTATCTCCATGCCCCACCATTCCTGCCACGTGGCAGTG
DNA 2: CACTGCCACGTGGCAGGAATGGTGGGGCATGGAGATACACACGTGTAGAC
**Q.** Does B2 bind?
**A.** binds
